The target of one experiment is T1, human Hsp90α (human, UniProt P07900-1 1-732).
T1 construct: human Hsp90α (Hsp90AA1-1), canonical isoform, 732 aa as printed; also called Hsp90AA1-1; heat shock protein 90
The experiment can be described thus: SEC; chaperone and cochaperone at 2.5 µM, 10 min at 30°C following 10 min on ice, 40 mM Hepes-KOH pH 7.4, 50 mM KCl, 2 mM Mg2Cl; Superdex 200 HR 10/30 in the same buffer; fractions analysed by SDS-PAGE (Western blot for Aha1 and Cdc37 in the Hsp103 runs); shift of the cochaperone to higher molecular mass. To be noted: both partners purified. A general note: In gel filtration, larger molecules generally elute earlier.

The target in the next experiment is T2, human Hsp103 (human, UniProt P07900-2 1-854).
T2 construct: human Hsp103, the isoform of Hsp90α with an additional 122 aa (E domain) at the N-terminus; printed length 854 aa (also printed as 852 aa for Hsp90AA1-2); also called Hsp90AA1-2; Hsp90α with extra E domain
Described as above. To be noted: both partners purified.

B1: human Cdc37 (natural protein, UniProt Q16543 1-378, looked up)
chain: MVDYSVWDHIEVSDDEDETHPNIDTASLFRWRHQARVERMEQFQKEKEELDRGCRECKRKVAECQRKLKELEVAEGGKAELERLQAEAQQLRKEERSWEQKLEEMRKKEKSMPWNVDTLSKDGFSKSMVNTKPEKTEEDSEEVREQKHKTFVEKYEKQIKHFGMLRRWDDSQKYLSDNVHLVCEETANYLVIWCIDLEVEEKCALMEQVAHQTIVMQFILELAKSLKVDPRACFRQFFTKIKTADRQYMEGFNDELEAFKERVRGRAKLRIEKAMKEYEEEERKKRLGPGGLDPVEVYESLPEELQKCFDVKDVQMLQDAISKMDPTDAKYHMQRCIDSGLWVPNSKASEAKEGEEAGPGDPLLEAVPKTGDEKDVSV
notes: human Cdc37, cochaperone of Hsp90
B1: the binding result with human Hsp90α and in the experiment with human Hsp103 was “binds” in each case.

The record behind these values is PMC3739785, “A Primate Specific Extra Domain in the Molecular Chaperone Hsp90” (PLoS ONE, 2013).
